Results on 4 molecules are retold here after patent US20230212319A1, “NOVEL ANTIGEN BINDING DOMAINS AND SYNTHETIC ANTIGEN RECEPTORS INCORPORATING THE SAME” (University of Southern California, priority 2020, published 2023).

Common to all, as to assay type: cell-based
For one assay, the system named is RAJI-CD19-KO cells. Briefly: JNG assay, co-culture with RAJI-CD19-KO cells. To be noted: co-culture with Raji-CD19-KO. The gist of the method:
(§1)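 Read-out is NFAT-driven GFP measured by flow cytometry after ~4–18 h co-culture of SAR-expressing JNG cells with target cells (E:T about 1:2). SARs were introduced by lentiviral spinfection and selected with puromycin or blasticidin when possible; scores (+/- to 5+ ≈ 5–50% GFP+) are relative to parental JNG cells.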

For a further assay, the system named is Nalm6 cells. Briefly: JNG assay, co-culture with Nalm6 cells. To be noted: co-culture with Nalm6. The gist of the method:
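Read-out: % GFP-positive cells by flow cytometry after ~4 to 18 h coculture of SAR-transduced JNG cells with targets (E:T about 1:2). Scores reflect GFP induction above parental JNG controls: +/- ≈5%, + ≈10%, up to 5+ ≈50%.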

The next assay has as its system RAJI cells. The experiment in a line: JNG assay, co-culture with RAJI cells. The settings on record: JNG cells expressing construct, co-culture with Raji. The procedure, abridged:
as §1

The next assay has as its system L363 cells. Briefly: JNG assay, co-culture with L363 cells. To be noted: co-culture with L363. The procedure, abridged:
as §1

B1: 22105 (protein)
chain: MALPVTALLLPLALLLHAARPDIQMTQSPSSLSASVGDRVTITCKASDHINNWLAWYQQKPGQAPKLLIYGATTLETGVPSRFSGSGSGTDYTLTISSLQPEDFATYYCQQSWNTPWTFGQGTKLEIKRLEDLKNVFPPEVAVFEPSEAEISHTQKATLVCLATGFYPDHVELSWWVNGKEVHSGVCTDPQPLKEQPALNDSRYCLSSRLRVSATFWQNPRNHFRCQVQFYGLSENDEWTQDRAKPVTQIVSAEAWGRADCGFTSESYQQGVLSATILYEILLGKATLYAVLVSALVLMAMVKRKDSRGRAKRSGSGATNFSLLKQAGDVEENPGPTSATMDWIWRILFLVGAATGAHSGPQVQLQESGGGLAQAGGSLRLSCAASGRTFSMGWFRQAPGKEREFVAAITYSGGSPYYASSVRGRFTISRDNAKNTVYLQMNSLKPEDTAVYYCAANPTYGSDWNAENWGQGTQVTVSSGSGGGGSGGGGSGGGGSFEQVQLQQPGAELVKPGASVKMSCKASGYAFSSYWINWMKQKPGQGLEWIGQIYPGDGDTNYNGKFKGRATLTADTSSSTAYMQLSSLTSEDSAVYFCARSITTVVGCAMDYWGQGTSVTVSSTRIQNPDPAVYQLRDSKSSDKSVCLFTDFDSQTNVSQSKDSDVYITDKCVLDMRSMDFKSNSAVAWSNKSDFACANAFNNSIIPEDTFFPSPESSCDVKLVEKSFETDTNLNFQNLSVIGFRILLLKVAGFNLLMTLRLWSSRAKRSGSGVKQTLNFDLLKLAGDVESNPGPSRGHMTEYKPTVRLATRDDVPRAVRTLAAAFADYPATRHTVDPDRHIERVTELQELFLTRVGLDIGKVWVADDGAAVAVWTTPESVEAGAVFAEIGPRMAELSGSRLAAQQQMEGLLAPHRPKEPAWFLATVGVSPDHQGKGLGSAVVLPGVEAAERAGVPAFLETSAPRNLPFYERLGFTVTADVEVPEGPRTWCMTRKPGA
With B1, in the assay with RAJI-CD19-KO cells, the “NFAT-GFP ASSAY: Raji-CD19-KO” value was 4+ (refer to approximately 5%, 10%, 20%, 30%, 40% and 50% GFP positive cells). The “NFAT-GFP ASSAY: Nalm6” value in the assay with Nalm6 cells was 5+ (refer to approximately 5%, 10%, 20%, 30%, 40% and 50% GFP positive cells).

B2: 22201 (protein)
chain: MALPVTALLLPLALLLHAARPACEVQLLESGGGLIQPGGSLRLSCAASGFTFSSHAMTWVRQAPGKGLEWVSAISGSGDYTHYADSVKGRFTISRDNSKNTVYLQMNSLRAEDSAVYYCAKDEDGGSLLGHRGQGTLVTVSSGTGGGGSGGGGSGGGGSEFAGHLEQPQISSTKTLSKTARLECVVSGITISATSVYWYRERPGEVIQFLVSISYDGTVRKESGIPSGKFEVDRIPETSTSTLTIHNVEKQDIATYYCALWEAQQELGKKIKVFGPGTKLIITDKQLDKQLDADVSPKPTIFLPSIAETKLQKAGTYLCLLEKFFPDVIKIHWQEKKSNTILGSQEGNTMKTNDTYMKFSWLTVPEKSLDKEHRCIVRHENNKNGVDQEIIFPPIKTDVITMDPKDNCSKDANDTLLLQLTNTSAYYMYLLLLLKSVVYFAIITCCLLRRTAFCCNGEKSRAKRSGSGATNFSLLKQAGDVEENPGPTSATMDWIWRILFLVGAATGAHSGPQVQLQESGGGLAQAGGSLRLSCAASGRTFSMGWFRQAPGKEREFVAAITYSGGSPYYASSVRGRFTISRDNAKNTVYLQMNSLKPEDTAVYYCAANPTYGSDWNAENWGQGTQVTVSSGSGGGGSGGGGSGGGGSFEAIELVPEHQTVPVSIGVPATLRCSMKGEAIGNYYINWYRKTQGNTMTFIYREKDIYGPGFKDNFQGDIDIAKNLAVLKILAPSERDEGSYYCACDTLGMGGEYTDKLIFGKGTRVTVEPRSQPHTKPSVFVMKNGTNVACLVKEFYPKDIRINLVSSKKITEFDPAIVISPSGKYNAVKLGKYEDSNSVTCSVQHDNKTVHSTDFEVKTDSTDHVKPKETENTKQPSKSCHKPKAIVHTEKVNMMSLTVLGLRMLFAKTVAVNFLLTAKLFFLRAKRSGSGVKQTLNFDLLKLAGDVESNPGPSRAHMTEYKPTVRLATRDDVPRAVRTLAAAFADYPATRHTVDPDRHIERVTELQELFLTRVGLDIGKVWVADDGAAVAVWTTPESVEAGAVFAEIGPRMAELSGSRLAAQQQMEGLLAPHRPKEPAWFLATVGVSPDHQGKGLGSAVVLPGVEAAERAGVPAFLETSAPRNLPFYERLGFTVTADVEVPEGPRTWCMTRKPGA
Consider B2, for which the “NFAT-GFP ASSAY: Raji-CD19-KO” value with RAJI-CD19-KO cells is 2+ (refer to approximately 5%, 10%, 20%, 30%, 40% and 50% GFP positive cells). Also, in the assay with Nalm6 cells, the “NFAT-GFP ASSAY: Nalm6” value was “+/- (refer to approximately 5%, 10%, 20%, 30%, 40% and 50% GFP positive cells)”.

B3: 22161 (protein)
chain: MALPVTALLLPLALLLHAARPACEVQLLESGGGLIQPGGSLRLSCAASGFTFSSHAMTWVRQAPGKGLEWVSAISGSGDYTHYADSVKGRFTISRDNSKNTVYLQMNSLRAEDSAVYYCAKDEDGGSLLGHRGQGTLVTVSSGTGGGGSGGGGSGGGGSEFDIQMTQSPSSLSASVGDRVTITCKASDHINNWLAWYQQKPGQAPKLLIYGATTLETGVPSRFSGSGSGTDYTLTISSLQPEDFATYYCQQSWNTPWTFGQGTKLEIKRLEDLKNVFPPEVAVFEPSEAEISHTQKATLVCLATGFYPDHVELSWWVNGKEVHSGVCTDPQPLKEQPALNDSRYCLSSRLRVSATFWQNPRNHFRCQVQFYGLSENDEWTQDRAKPVTQIVSAEAWGRADCGFTSESYQQGVLSATILYEILLGKATLYAVLVSALVLMAMVKRKDSRGRAKRSGSGATNFSLLKQAGDVEENPGPTSATMDWIWRILFLVGAATGAHSGPEVQLVESGGGLVQAGGSLRLSCAASGRTFSMGWFRQAPGKEREFVAAITYSGGSPYYADSVKGRFTISRDNAKNTVYLQMNSLKPEDTAVYYCAANPTYGSDWNAENWGQGTQVTVSSGSGGGGSGGGGSGGGGSFEQVQLQQPGAELVKPGASVKMSCKASGYAFSSYWINWMKQKPGQGLEWIGQIYPGDGDTNYNGKFKGRATLTADTSSSTAYMQLSSLTSEDSAVYFCARSITTVVGCAMDYWGQGTSVTVSSTRIQNPDPAVYQLRDSKSSDKSVCLFTDFDSQTNVSQSKDSDVYITDKCVLDMRSMDFKSNSAVAWSNKSDFACANAFNNSIIPEDTFFPSPESSCDVKLVEKSFETDTNLNFQNLSVIGFRILLLKVAGFNLLMTLRLWSSRAKRSGSGVKQTLNFDLLKLAGDVESNPGPSRGHMTEYKPTVRLATRDDVPRAVRTLAAAFADYPATRHTVDPDRHIERVTELQELFLTRVGLDIGKVWVADDGAAVAVWTTPESVEAGAVFAEIGPRMAELSGSRLAAQQQMEGLLAPHRPKEPAWFLATVGVSPDHQGKGLGSAVVLPGVEAAERAGVPAFLETSAPRNLPFYERLGFTVTADVEVPEGPRTWCMTRKPGA
As to B3, the “NFAT-GFP ASSAY: Raji” value in the assay with RAJI cells was “+/- (refer to approximately 5%, 10%, 20%, 30%, 40% and 50% GFP positive cells)”. For the same molecule, the “NFAT-GFP ASSAY: Raji-CD19-KO” value in the assay with RAJI-CD19-KO cells is “+/- (refer to approximately 5%, 10%, 20%, 30%, 40% and 50% GFP positive cells)”. Also, the “NFAT-GFP ASSAY: Nalm6” value in the assay with Nalm6 cells was “+/- (refer to approximately 5%, 10%, 20%, 30%, 40% and 50% GFP positive cells)”.

B4: 22131 (protein)
chain: MALPVTALLLPLALLLHAARPACEVQLLESGGGLIQPGGSLRLSCAASGFTFSSHAMTWVRQAPGKGLEWVSAISGSGDYTHYADSVKGRFTISRDNSKNTVYLQMNSLRAEDSAVYYCAKDEDGGSLLGHRGQGTLVTVSSGTGGGGSGGGGSGGGGSEFDIQMTQSPSSLSASVGDRVTITCKASDHINNWLAWYQQKPGQAPKLLIYGATTLETGVPSRFSGSGSGTDYTLTISSLQPEDFATYYCQQSWNTPWTFGQGTKLEIKRLEDLKNVFPPEVAVFEPSKAEIAHTQKATLVCLATGFYPDHVELSWWVNGKEVHSGVCTDPQPLKEQPALNDSRYCLSSRLRVSATFWQNPRNHFRCQVQFYGLSENDEWTQDRAKPVTQIVSAEAWGRADCGITSASYHQGVLSATILYEILLGKATLYAVLVSALVLMAMVKRKDSRGRAKRSGSGATNFSLLKQAGDVEENPGPTSATMDWIWRILFLVGAATGAHSGPQVQLQESGGGLAQAGGSLRLSCAASGRTFSMGWFRQAPGKEREFVAAITYSGGSPYYASSVRGRFTISRDNAKNTVYLQMNSLKPEDTAVYYCAANPTYGSDWNAENWGQGTQVTVSSGSGGGGSGGGGSGGGGSFEQVQLQQPGAELVKPGASVKMSCKASGYAFSSYWINWMKQKPGQGLEWIGQIYPGDGDTNYNGKFKGRATLTADTSSSTAYMQLSSLTSEDSAVYFCARSITTVVGCAMDYWGQGTSVTVSSTRIQNPDPAVYQLRDSKSSDKSVCLFTDFDSQTNVSQSKDSDVYITDKCVLDMRSMDFKSNSAVAWSNKSDFACANAFNNSIIPEDTFFPSSDVPCDVKLVEKSFETDTNLNFQNLSVIGFRILLLKVAGFNLLMTLRLWSSRAKRSGSGVKQTLNFDLLKLAGDVESNPGPSRGHMTEYKPTVRLATRDDVPRAVRTLAAAFADYPATRHTVDPDRHIERVTELQELFLTRVGLDIGKVWVADDGAAVAVWTTPESVEAGAVFAEIGPRMAELSGSRLAAQQQMEGLLAPHRPKEPAWFLATVGVSPDHQGKGLGSAVVLPGVEAAERAGVPAFLETSAPRNLPFYERLGFTVTADVEVPEGPRTWCMTRKPGA
Turning to B4, in the assay on RAJI cells, the “NFAT-GFP ASSAY: Raji” value is 4+ (refer to approximately 5%, 10%, 20%, 30%, 40% and 50% GFP positive cells). Also, the “NFAT-GFP ASSAY: Raji-CD19-KO” value in the assay on RAJI-CD19-KO cells is 5+ (refer to approximately 5%, 10%, 20%, 30%, 40% and 50% GFP positive cells). In addition, in the assay on L363 cells, the “NFAT-GFP ASSAY: L363” value was 5+ (refer to approximately 5%, 10%, 20%, 30%, 40% and 50% GFP positive cells).
